Data: PMC7026628

What was measured:
EV71-C 3Dpol WT [1] = target: T1, EV71-C 3Dpol WT (Enterovirus 71 strain …, UniProt M4QLY4 1732-2193); assay: fluorescence polarization; 5 mM Mg2+; FP: 50 mM potassium glutamate pH 7.5, 50 mM arginine, 5 mM DTT, 5 mM MgCl2, 30 mM NaCl, 5% glycerol, 25 nM RNA, room temperature, at least 60 min. EC assembly:
EV71-C 3Dpol WT [2] = target: T1, EV71-C 3Dpol WT; assay: crystal structure (1.8 A); five Mg2+; elongation complex; FP: 50 mM potassium glutamate pH 7.5, 50 mM arginine, 5 mM DTT, 5 mM MgCl2, 30 mM NaCl, 5% glycerol, 25 nM RNA, room temperature, at least 60 min. EC assembly:
EV71-C 3Dpol WT [3] = target: T1, EV71-C 3Dpol WT; assay: crystal structure; ddCTP-soaked elongation complex; FP: 50 mM potassium glutamate pH 7.5, 50 mM arginine, 5 mM DTT, 5 mM MgCl2, 30 mM NaCl, 5% glycerol, 25 nM RNA, room temperature, at least 60 min. EC assembly:

B1: T31/P8F (structured_RNA)
RNA 1: GGGAGAUGAAAGUCUCCAGGUCUCUCGGAAA
RNA 2: UGUUCCGA
B1 gave a Kd (EV71-C 3Dpol WT [1]) of 180 nM.

B2: T31/P12 (T31/P8 after GAGA incorporation) (structured_RNA)
RNA 1: GGGAGAUGAAAGUCUCCAGGUCUCUCGGAAA
RNA 2: UGUUCCGAGAGA
B2: binds (EV71-C 3Dpol WT [2]).

B3: T31/P12 + ddCMP (structured_RNA)
RNA 1: GGGAGAUGAAAGUCUCCAGGUCUCUCGGAAA
RNA 2: UGUUCCGAGAGAC
modifications: 3'-terminal 2',3'-dideoxy-C on product strand
B3: binds (EV71-C 3Dpol WT [3]).
